Earlier results as cited in paper PMC5951583.
pKd: −log10 of the molar value. Like-named read-outs stand apart in the source and are kept apart here.

What was measured:
[1] = target: Syt-II (Rattus norvegicus) (UniProt P29101)
[2] = target: Synaptotagmin-2 (Rattus norvegicus) (UniProt P29101)
[3] = target: Synaptotagmin-2 (Rattus norvegicus) (UniProt P29101); assay: SPR
[4] = target: Syt-II luminal domain (Rattus norvegicus) (UniProt P29101); assay: ITC
[5] = target: Synaptotagmin-2 (Rattus norvegicus) (UniProt P29101); remark: listed apart in the source
[6] = target: Synaptotagmin-2 (Rattus norvegicus) (UniProt P29101); assay: ITC

Substance: BoNT/B (from UniProt P10844)
- pKd [1]: 8.15
- pKd [2]: 9.64
- pKd [3]: 9.22

Substance: BoNT/B HC (HCB) HC (from UniProt P10844)
- pKd [4]: 7.47

Substance: BoNT/B HC HC (from UniProt P10844)
- pKd [5]: 8.15
- pKd [6]: 7.47
